Results from paper PMC10482377, “Septum site placement in Mycobacteria – identification and characterisation of mycobacterial homologues of Escherichia coli MinD” (Microbiology, 2023).

Molecular target: T1, M. tb ParB with C-terminal 6xHis-tag (M. tuberculosis, UniProt P9WIJ9 1-344)
T1 construct: not shown: 6xHis, C-terminal, kept
T1 sequence: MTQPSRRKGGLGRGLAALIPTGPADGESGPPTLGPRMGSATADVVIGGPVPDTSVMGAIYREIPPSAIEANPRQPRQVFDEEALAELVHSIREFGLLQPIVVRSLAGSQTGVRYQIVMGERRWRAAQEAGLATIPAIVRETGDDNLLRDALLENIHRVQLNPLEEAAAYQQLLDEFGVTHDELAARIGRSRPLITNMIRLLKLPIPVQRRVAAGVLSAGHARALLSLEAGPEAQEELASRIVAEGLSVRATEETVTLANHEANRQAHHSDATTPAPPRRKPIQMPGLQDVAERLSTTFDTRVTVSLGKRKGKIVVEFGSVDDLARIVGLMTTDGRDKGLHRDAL
Experiment: pull-down; equimolar bait (GST-Rv1708) and prey (His-tagged) incubated O/N at 4 °C in PBS + 0.1 % Triton X-100, then GSH beads 4 h at 4 °C; washed; Western blot with anti-6xHis
Details: both partners purified

B1: GST-Rv1708 (natural protein)
chain: MPAGLPGQASVAVRLSCDVPPDARHHEPRPGMTDHPDTGNGIGLTGRPPRAIPDPAPRSSHGPAKVIAMCNQKGGVGKTTSTINLGAALGEYGRRVLLVDMDPQGALSAGLGVPHYELDKTIHNVLVEPRVSIDDVLIHSRVKNMDLVPSNIDLSAAEIQLVNEVGREQTLARALYPVLDRYDYVLIDCQPSLGLLTVNGLACTDGVIIPTECEFFSLRGLALLTDTVDKVRDRLNPKLDISGILITRYDPRTVNSREVMARVVERFGDLVFDTVITRTVRFPETSVAGEPITTWAPKSAGALAYRALARELIDRFGM
notes: also called M. tb minD; not shown: GST, N-terminal, kept
B1: binds.
